Patent US20200317768A1 (published 2020)

T1: cynomolgus monkey FcγRIIa2 extracellular domain, C-terminal His-tag (cynomolgus monkey)
T1 construct: also called cyno FcγRIIa2; cynoFcgRIIa2; not shown: His-tag added to C-terminus
T1 chain: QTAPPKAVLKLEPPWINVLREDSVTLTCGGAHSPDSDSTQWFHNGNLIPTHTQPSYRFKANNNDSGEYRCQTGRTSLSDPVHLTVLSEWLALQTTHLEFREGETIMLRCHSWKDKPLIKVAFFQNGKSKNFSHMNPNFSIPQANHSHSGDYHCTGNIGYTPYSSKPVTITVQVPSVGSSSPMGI

T2: cynomolgus monkey FcγRIIa1 extracellular domain, C-terminal His-tag (cynomolgus monkey)
T2 construct: also called cyno FcγRIIa1; cynoFcgRIIa1; not shown: His-tag added to C-terminus
T2 chain: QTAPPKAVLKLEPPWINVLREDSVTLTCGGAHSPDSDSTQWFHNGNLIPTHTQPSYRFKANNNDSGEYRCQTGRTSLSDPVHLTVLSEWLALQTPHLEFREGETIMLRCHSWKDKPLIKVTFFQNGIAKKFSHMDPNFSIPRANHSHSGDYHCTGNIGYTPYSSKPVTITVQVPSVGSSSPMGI

T3: human FcγRIIaR extracellular domain, C-terminal His-tag (human, UniProt P12318 34-217)
T3 construct: also called human FcγRIIa (type R); FcgRIIaR; not shown: His-tag added to C-terminus
T3 chain: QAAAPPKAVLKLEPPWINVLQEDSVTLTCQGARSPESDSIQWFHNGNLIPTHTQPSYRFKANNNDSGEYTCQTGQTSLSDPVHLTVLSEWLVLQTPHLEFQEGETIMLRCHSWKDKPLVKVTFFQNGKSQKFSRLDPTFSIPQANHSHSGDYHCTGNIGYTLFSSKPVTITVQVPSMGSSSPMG

T4: cynomolgus monkey FcγRIIa3 extracellular domain, C-terminal His-tag (cynomolgus monkey)
T4 construct: also called cyno FcγRIIa3; cynoFcgRIIa3; not shown: His-tag added to C-terminus
T4 chain: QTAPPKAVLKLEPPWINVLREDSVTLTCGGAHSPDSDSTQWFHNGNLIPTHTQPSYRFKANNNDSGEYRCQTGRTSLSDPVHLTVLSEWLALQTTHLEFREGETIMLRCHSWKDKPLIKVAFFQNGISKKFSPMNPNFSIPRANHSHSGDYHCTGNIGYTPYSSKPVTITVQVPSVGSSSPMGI

T5: human FcγRIIaH extracellular domain, C-terminal His-tag (human, UniProt P12318 34-217)
T5 construct: also called human FcγRIIa (type H); FcgRIIaH; not shown: His-tag added to C-terminus
T5 sequence: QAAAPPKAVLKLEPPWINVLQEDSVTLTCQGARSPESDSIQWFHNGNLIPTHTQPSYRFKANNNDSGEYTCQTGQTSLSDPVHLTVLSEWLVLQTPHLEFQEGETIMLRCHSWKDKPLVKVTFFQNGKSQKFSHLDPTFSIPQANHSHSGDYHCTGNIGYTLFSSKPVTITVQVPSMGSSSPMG

T6: cynomolgus monkey FcγRIIb extracellular domain, C-terminal His-tag (cynomolgus monkey)
T6 construct: also called cyno FcγRIIb; cynoFcγRIIb; not shown: His-tag added to C-terminus
T6 chain: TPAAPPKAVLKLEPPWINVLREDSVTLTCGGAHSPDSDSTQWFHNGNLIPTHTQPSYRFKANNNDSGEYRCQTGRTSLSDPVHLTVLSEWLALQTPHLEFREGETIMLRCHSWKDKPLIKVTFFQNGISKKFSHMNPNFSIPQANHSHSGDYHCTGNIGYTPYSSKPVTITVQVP

T7: human FcγRIIb extracellular domain, C-terminal His-tag (human, UniProt P31994 43-217)
T7 construct: also called humanFcgRIIb; not shown: His-tag added to C-terminus
T7 sequence: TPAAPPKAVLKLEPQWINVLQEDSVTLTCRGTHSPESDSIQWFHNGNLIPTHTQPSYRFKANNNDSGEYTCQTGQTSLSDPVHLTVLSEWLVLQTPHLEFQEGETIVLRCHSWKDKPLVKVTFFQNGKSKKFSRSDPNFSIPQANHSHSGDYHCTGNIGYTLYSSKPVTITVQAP


Experiments:
Assay in all cases: SPR (BIACORE); KD of SG1 / KD of variant;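 further: relative to parent M103205H795-SG1 carrying the SG1 human heavy chain constant region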
[1] = biological target: T8, cynomolgus monkey FcγRIIIaS extracellular domain, C-terminal His-tag (cynomolgus monkey, UniProt A3RFZ7 21-206 (rhesus entry))
T8 construct: also called cyno FcγRIIIaS; cynoFcγRIIIaS; not shown: His-tag added to C-terminus
T8 sequence (A3RFZ7 21-206): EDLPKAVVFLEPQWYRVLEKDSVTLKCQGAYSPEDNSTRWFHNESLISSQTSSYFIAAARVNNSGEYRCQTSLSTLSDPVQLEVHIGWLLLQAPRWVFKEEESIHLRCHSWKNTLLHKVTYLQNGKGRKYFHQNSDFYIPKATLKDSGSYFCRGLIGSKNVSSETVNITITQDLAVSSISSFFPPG
Description: (§1) The kinetic analysis of interactions between these antibodies and FcγR was carried out using BIACORE® T200 or BIACORE® 4000 (GE Healthcare). HBS-EP+ (GE Healthcare) was used as the running buffer, and the measurement temperature was set to 25° C. A chip produced by immobilizing Protein A. Protein A/G or mouse anti-human IgG kappa light chain (BD Biosciences) onto a Series S Sensor Chip CM4 or CM5 (GE Healthcare) by the amine-coupling method was used. […] After the measurement, the antibody captured on the chip was washed off by allowing reaction with 10 mM glycine-HCl, pH1.5 and 25 mM NaOH so that the chip was regenerated and used repeatedly. The sensorgrams obtained as measurement results were analyzed by the 1:1 Langmuir binding model using the BIACORE® Evaluation Software to calculate the binding rate constant ka (L/mol/s) and dissociation rate constant kd (l/s), and the dissociation constant KD (mol/L) was calculated from these values. […] Regarding such interactions, KD values were calculated using the following 1:1 binding model described in BIACORE® T100 Software Handbook BR1006-48 Edition AE.
(§2) The behavior of interacting molecules according to the 1:1 binding model on BIACORE® can be described by Equation 1: Req=C·R max/(KD+C)+RI, wherein, Req is a plot of steady-state binding levels to analyte concentration. C is concentration, RI is bulk refractive index contribution in the sample, and Rmax is analyte binding capacity of the surface. When this equation is rearranged, KD can be expressed as Equation 2: KD=C·Rmax/(Req−RI)−C. KD can be calculated by substituting the values of Rmax, RI, and C into Equation 1 or Equation 2. From the current measurement conditions, RI=0, C=2 μmol/L can be used.

[2] = biological target: T1, cynomolgus monkey FcγRIIa2 …
Description: as §1, §2

[3] = biological target: T9, human FcγRIIIaV extracellular domain, C-terminal His-tag (human, UniProt P08637 17-208)
T9 construct: also called FcgRIIIaV; not shown: His-tag added to C-terminus
T9 sequence (P08637 17-208 F176V): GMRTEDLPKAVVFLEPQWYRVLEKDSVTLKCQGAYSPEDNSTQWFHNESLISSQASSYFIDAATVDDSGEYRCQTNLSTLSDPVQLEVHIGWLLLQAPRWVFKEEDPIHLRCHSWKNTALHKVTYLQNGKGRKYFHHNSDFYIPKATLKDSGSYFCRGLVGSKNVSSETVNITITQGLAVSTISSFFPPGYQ
Description: as §1, §2

[4] = biological target: T2, cynomolgus monkey FcγRIIa1 …
Description: as §1, §2

[5] = biological target: T3, human FcγRIIaR extracellular domain, …
Description: as §1, §2

[6] = biological target: T4, cynomolgus monkey FcγRIIa3 …
Description: as §1, §2

[7] = biological target: T5, human FcγRIIaH extracellular domain, …
Description: as §1, §2

[8] = biological target: T6, cynomolgus monkey FcγRIIb extracellular …
Description: as §1, §2

[9] = biological target: T7, human FcγRIIb extracellular domain, …
Description: as §1, §2

KD fold (SG1 = 1) [1]	KD fold (SG1 = 1) [2]	KD fold (SG1 = 1) [3]	KD fold (SG1 = 1) [4]	KD fold (SG1 = 1) [5]	KD fold (SG1 = 1) [6]	KD fold (SG1 = 1) [7]	KD fold (SG1 = 1) [8]	KD fold (SG1 = 1) [9]	Binder
0.23 fold	4.6 fold	0.3 fold	2.7 fold	5 fold	17.3 fold	2.4 fold	4.5 fold	4.6 fold	M103205H795-MY536 / M103202L889-SK1 (antibody, human IgG1, kappa) heavy: QVTLKESGPVLVKPTETLTLTCTVSGIDLSHDDISWVRQAPGKGLEWVGIISYAGSTYYASWAKGRLTISKDTSKNQVVLTMTNMDPVDTATYYCARGVPAYSHGGDLWGQGTLVTVSSASTKGPSVFPLAPSSKSTSGGTAALGCLVKDYFPEPVTVSWNSGALTSGVHTFPAVLQSSGLYSLSSVVTVPSSSLGTQTYICNVNHKPSNTKVDKKVEPKSCDKTHTCPPCPGPEWLTGPVVFLFPPKPKDTLMISRTPEVTCVVVDVSDEDPEVKFNWYVDGVEVHNAKTKPREEQYNSTYRVVSVLTVLHQDWLNGKEYKCKVSNKALPKPIEKTISKAKGQPREPQVYTLPPSREEMTKNQVSLTCLVKGFYPSDIAVEWESNGQPENNYKTTPPVLDSDGSFFLYSKLTVDKSRWQQGNVFSCSVMHEALHNHYTQKSLSLSP light: DIVMTQSPATLSLSPGERATLSCTSSQSVYHANWLSWFQQKPGQPPKLLIYWASTLAYGVPSRFSGSGSGTDFTLTISSLQPEDAATYYCAGGYGGGRYAFGQGTKVEIKRTVAAPSVFIFPPSDEQLKSGTASVVCLLNNFYPREAKVQWKVDNALQSGNSQESVTEQDSKDSTYSLSSTLTLSKADYEKHKVYACEVTHQGLSSPVTKSFNRGEC
0.24 fold	4.6 fold	0.25 fold	2.7 fold	3 fold	12.1 fold	2.5 fold	3.6 fold	4.6 fold	M103205H795-MY537 / M103202L889-SK1 (antibody, human IgG1, kappa) heavy: QVTLKESGPVLVKPTETLTLTCTVSGIDLSHDDISWVRQAPGKGLEWVGIISYAGSTYYASWAKGRLTISKDTSKNQVVLTMTNMDPVDTATYYCARGVPAYSHGGDLWGQGTLVTVSSASTKGPSVFPLAPSSKSTSGGTAALGCLVKDYFPEPVTVSWNSGALTSGVHTFPAVLQSSGLYSLSSVVTVPSSSLGTQTYICNVNHKPSNTKVDKKVEPKSCDKTHTCPPCPGPEWLTGPVVFLFPPKPKDTLMISRTPEVTCVVVDVSDEDPEVKFNWYVDGVEVHNAKTKPREELYNSTYRVVSVLTVLHQDWLNGKEYKCKVSNKALPKPIEKTISKAKGQPREPQVYTLPPSREEMTKNQVSLTCLVKGFYPSDIAVEWESNGQPENNYKTTPPVLDSDGSFFLYSKLTVDKSRWQQGNVFSCSVMHEALHNHYTQKSLSLSP light: DIVMTQSPATLSLSPGERATLSCTSSQSVYHANWLSWFQQKPGQPPKLLIYWASTLAYGVPSRFSGSGSGTDFTLTISSLQPEDAATYYCAGGYGGGRYAFGQGTKVEIKRTVAAPSVFIFPPSDEQLKSGTASVVCLLNNFYPREAKVQWKVDNALQSGNSQESVTEQDSKDSTYSLSSTLTLSKADYEKHKVYACEVTHQGLSSPVTKSFNRGEC
0.15 fold	4.6 fold	0.14 fold	3.3 fold	1.8 fold	5.7 fold	2.8 fold	6.4 fold	3.5 fold	M103205H795-MY538 / M103202L889-SK1 (A231G/L234W/G236T/H268D/Q295L/A330K, as in Table 23B) (antibody, human IgG1, kappa) heavy: QVTLKESGPVLVKPTETLTLTCTVSGIDLSHDDISWVRQAPGKGLEWVGIISYAGSTYYASWAKGRLTISKDTSKNQVVLTMTNMDPVDTATYYCARGVPAYSHGGDLWGQGTLVTVSSASTKGPSVFPLAPSSKSTSGGTAALGCLVKDYFPEPVTVSWNSGALTSGVHTFPAVLQSSGLYSLSSVVTVPSSSLGTQTYICNVNHKPSNTKVDKKVEPKSCDKTHTCPPCPGPEWLTGPSVFLFPPKPKDTLMISRTPEVTCVVVDVSDEDPEVKFNWYVDGVEVHNAKTKPREELYNSTYRVVSVLTVLHQDWLNGKEYKCKVSNKALPKPIEKTISKAKGQPREPQVYTLPPSREEMTKNQVSLTCLVKGFYPSDIAVEWESNGQPENNYKTTPPVLDSDGSFFLYSKLTVDKSRWQQGNVFSCSVMHEALHNHYTQKSLSLSP light: DIVMTQSPATLSLSPGERATLSCTSSQSVYHANWLSWFQQKPGQPPKLLIYWASTLAYGVPSRFSGSGSGTDFTLTISSLQPEDAATYYCAGGYGGGRYAFGQGTKVEIKRTVAAPSVFIFPPSDEQLKSGTASVVCLLNNFYPREAKVQWKVDNALQSGNSQESVTEQDSKDSTYSLSSTLTLSKADYEKHKVYACEVTHQGLSSPVTKSFNRGEC
